What was measured:
[1] = target: feline immunodeficiency virus (FIV) Gag, Villefranche strain, expressed by ALVAC recombinants (vCP21 (feline immunodeficiency virus, Villefranche strain)); experiment: sandwich kinetic ELISA, plate coated with pooled FIV gag-specific MAb 2 ug/well, gag lysate 1 ug/well, control rabbit serum 1:100
[2] = target: feline immunodeficiency virus (FIV) Gag, Villefranche strain, expressed by ALVAC recombinants (vCP21 (feline immunodeficiency virus, Villefranche strain)); experiment: sandwich kinetic ELISA, plate coated with pooled FIV gag-specific MAb 2 ug/well, gag lysate 5 ug/well, control rabbit serum 1:100
[3] = target: feline immunodeficiency virus (FIV) Gag, Villefranche strain, expressed by ALVAC recombinants (vCP21 (feline immunodeficiency virus, Villefranche strain)); experiment: sandwich kinetic ELISA, plate coated with pooled FIV gag-specific MAb 2 ug/well, gag lysate 0.2 ug/well, control rabbit serum 1:100
[4] = target: feline immunodeficiency virus (FIV) Gag, Villefranche strain, expressed by ALVAC recombinants (vCP21 (feline immunodeficiency virus, Villefranche strain)); experiment: sandwich kinetic ELISA, plate coated with pooled FIV env-specific MAb 2 ug/well (mismatched capture control), gag lysate 1 ug/well, control rabbit serum 1:100
[5] = target: feline immunodeficiency virus (FIV) Gag, Villefranche strain, expressed by ALVAC recombinants (vCP21 (feline immunodeficiency virus, Villefranche strain)); experiment: sandwich kinetic ELISA, plate coated with pooled FIV env-specific MAb 2 ug/well (mismatched capture control), gag lysate 5 ug/well, control rabbit serum 1:100
[6] = target: feline immunodeficiency virus (FIV) Gag, Villefranche strain, expressed by ALVAC recombinants (vCP21 (feline immunodeficiency virus, Villefranche strain)); experiment: sandwich kinetic ELISA, plate coated with pooled FIV env-specific MAb 2 ug/well (mismatched capture control), gag lysate 0.2 ug/well, control rabbit serum 1:100

Rabbit A039 prebleed serum
KELISA (mOD/min) [1]: 1.2 mOD/min | KELISA (mOD/min) [2]: 1 mOD/min | KELISA (mOD/min) [3]: 1.3 mOD/min | KELISA (mOD/min) [4]: 0.8 mOD/min | KELISA (mOD/min) [5]: 1 mOD/min | KELISA (mOD/min) [6]: 0.9 mOD/min

— patent publication US7255862
